Results from the supplement of paper PMC10724198.
± gives the standard deviation of the averaged measurements.

What follows are sequences tested on Saccharomyces cerevisiae (assay: protein stability index of tFT-peptide fusion (C-terminal peptide) (PSI (0-1 scale)); higher = more stable (slower turnover)). Details: genetic background: wild type; temperature: 30 C.
Protocol: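 Multiplexed protein stability (MPS) profiling in S. cerevisiae. Random 12-aa peptides (tFT-X12 library) are fused to the C-terminus of a sfGFP-mCherry tandem fluorescent timer, after mCherry and a GGGS linker. Cells are FACS-sorted into 8 mCherry/sfGFP bins and deep-sequenced. The protein stability index (PSI) is the read-weighted bin average, scaled from 0 (unstable) to 1 (stable). Only peptides with >10 reads are reported; cells were grown at 30 °C in SC-His with glucose.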
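Also: PSI is a weighted mean of sequencing reads over stability bins, variants kept only with over 10 reads, mCherry proximal and sfGFP distal, peptide attached via GGGS linker.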

Sequence | protein stability index
GRGRWRSVYLRG | 0.622 ± 0.0078
GRGVWEFGGGGG | 0.666 ± 0.056
GRIPELVWWLDD | 0.76 ± 0.037
GRIVPSFQGSPQ | 0.723 ± 0.093
GRKGGEGERERT | 0.6715 ± 0.0049
GRKRWVRLSLAC | 0.563 ± 0.028
GRKVPQRRQSAR | 0.749 ± 0.015
GRLGSTRRPPSG | 0.701 ± 0.0095
GRLIERCSLRMT | 0.68 ± 0.055
GRLKSTSTIRRF | 0.722 ± 0.021
GRLLCFLFCCSS | 0.603 ± 0.035
GRLRGGGPVAAR | 0.692 ± 0.053
GRLRNVSLLSFC | 0.662 ± 0.011
GRPHRYWRVVPY | 0.68 ± 0.036
GRPKGGGIGEAG | 0.6928 ± 0.00079
GRPKNSYNQNSG | 0.747 ± 0.013
GRPLRAPPPPSP | 0.65 ± 0.043
GRPYEHVVDPWR | 0.733 ± 0.029
GRRFCYQASAGQ | 0.642 ± 0.0093
GRRGCSGGLKGL | 0.675 ± 0.039
GRRGGGTGAPSR | 0.65 ± 0.05
GRRVVRGWLVRR | 0.683 ± 0.095
GRRWGGERVREG | 0.66 ± 0.015
GRRWPVPGGVSA | 0.693 ± 0.09
GRSPMGDGGFFS | 0.7284 ± 0.0034
GRTKFIPTPSTY | 0.712 ± 0.023

Sequence | protein stability index
GRVQARGRPGLD | 0.632 ± 0.045
GRWGRGGASVVT | 0.649 ± 0.029
GSACSLCGLYFN | 0.709 ± 0.073
GSCVVRKFGKRS | 0.681 ± 0.016
GSDDLVSVSSAE | 0.708 ± 0.028
GSDEVGTGWGRL | 0.669 ± 0.13
GSFFFFLAPSYF | 0.636 ± 0.014
GSGAQVERCRWE | 0.719 ± 0.02
GSGGLRVVCLLM | 0.653 ± 0.027
GSGRNMHLRGSL | 0.65 ± 0.019
GSGTGRWPGYGS | 0.718 ± 0.088
GSILPSGFLSFA | 0.7472 ± 0.003
GSLGTTTILRKT | 0.67 ± 0.064
GSLLSEERGRYW | 0.75 ± 0.026
GSNKWATANKYG | 0.6561 ± 0.0033
GSPLASSPSVID | 0.704 ± 0.041
GSPPSPPLPPPP | 0.674 ± 0.023
GSPTSAPLSPPP | 0.686 ± 0.0038
GSQSPKEEYHES | 0.632 ± 0.045
GSRAECWEVGGV | 0.6742 ± 0.004
GSRPVSAGCAYS | 0.655 ± 0.038
GSSGGVWPDLNY | 0.701 ± 0.012
GSSGQPDSPPIS | 0.684 ± 0.015
GSSLRRLPASCD | 0.676 ± 0.066
GSSQGCLICSIA | 0.649 ± 0.049
GSTNNHEVTENI | 0.688 ± 0.013

Sequence | protein stability index
GSTRHFMSEKRE | 0.743 ± 0.079
GSTSSSFPVSIR | 0.727 ± 0.045
GSVGFPDRLLCL | 0.73 ± 0.033
GSVLPPPAPPPL | 0.674 ± 0.021
GSVSWVLMWSWG | 0.623 ± 0.059
GSWAVQEHMLLE | 0.728 ± 0.065
GSWGEGGVAVGG | 0.653 ± 0.032
GSWRVLVLLGEL | 0.636 ± 0.029
GTCGDRGRGGER | 0.559 ± 0.023
GTDRRGRDAPHS | 0.586 ± 0.031
GTEYDENSGTNE | 0.642 ± 0.011
GTGDGRHRCRWN | 0.6655 ± 0.006
GTGGRMIRWGLG | 0.667 ± 0.061
GTGQSRAEGARP | 0.672 ± 0.015
GTLPLGVRGGLK | 0.657 ± 0.081
GTQTITAQRAAA | 0.643 ± 0.015
GTRGGGGWSCES | 0.701 ± 0.06
GTRRIDSKDICP | 0.742 ± 0.04
GTRVGRARGGRK | 0.835 ± 0.047
GTSDPRGSGPAG | 0.715 ± 0.015
GTVGTGFGGGVE | 0.677 ± 0.12
GTVTVLVGVHWE | 0.539 ± 0.008
GTWEGDTSACAR | 0.636 ± 0.047
GVAEGRKVGAST | 0.654 ± 0.036
GVAKRGREGCWS | 0.569 ± 0.065
GVAVVSGREGRG | 0.7809 ± 0.0063

Sequence | protein stability index
GVCGRWWTCMGV | 0.722 ± 0.061
GVCRGSRVGLVP | 0.714 ± 0.025
GVCRVAVGGGAT | 0.713 ± 0.033
GVCSRAVGSGSF | 0.715 ± 0.067
GVDGGGKWRGWG | 0.651 ± 0.06
GVFASWAWFGVG | 0.71 ± 0.046
GVFGFGARLCIG | 0.6782 ± 0.0043
GVFGLMVGWGWA | 0.665 ± 0.083
GVFGWAGCGVVL | 0.7188 ± 0.0043
GVGGFGFGWSMV | 0.725 ± 0.057
GVGGGRRGGGGG | 0.6409 ± 0.0036
GVGLDSMCVEGF | 0.723 ± 0.1
GVGLLAHLLIYR | 0.556 ± 0.0086
GVGREGEIGGGG | 0.544 ± 0.037
GVGRVGLACFVV | 0.542 ± 0.029
GVGWRGGCEGGV | 0.711 ± 0.062
GVIRGNRLELIV | 0.618 ± 0.025
GVKMVHERHNRV | 0.665 ± 0.057
GVLACVEYSRMS | 0.683 ± 0.0084
GVLARAYPTLWV | 0.68 ± 0.035
GVLGCCGLAWRG | 0.697 ± 0.073
GVLRVRLLAFGL | 0.65 ± 0.026
GVLVGLGWGWGG | 0.7135 ± 0.0011
GVNGFRIVCGGE | 0.674 ± 0.062
GVNLFEIVRSVT | 0.7169 ± 0.0012
GVNTKEEPNEFI | 0.698 ± 0.041

Sequence | protein stability index
GVPQEGHGLEGY | 0.7045 ± 0.00013
GVPRMLVGAFRG | 0.684 ± 0.022
GVQSSAPVKVRI | 0.6551 ± 0.0046
GVRRPYRSDLRL | 0.678 ± 0.023
GVRRVAVLYLLY | 0.527 ± 0.041
GVSAKVRRETVR | 0.725 ± 0.078
GVSCIAEGRGGV | 0.6693 ± 0.0045
GVSGGFVGSSGG | 0.62 ± 0.024
GVSTGSGASVAA | 0.659 ± 0.051
GVVFGWAGYKGT | 0.677 ± 0.034
GVVGDGGRLSGD | 0.667 ± 0.022
GVVGTISLFVLD | 0.61 ± 0.018
GVVPCVVGFICG | 0.687 ± 0.04
GVVRLYYLRIGR | 0.652 ± 0.11
GVVVLGRRMGAG | 0.6441 ± 0.0049
GVVVRGGEWGLD | 0.675 ± 0.061
GVWVMSGPVTRR | 0.716 ± 0.053
GWAVGVGGGRGR | 0.686 ± 0.017
GWAWGVALGVRG | 0.54189 ± 0.00034
GWFFFGCFECGG | 0.731 ± 0.024
GWFRDCEWGASS | 0.712 ± 0.061
GWFWGRGGRGRG | 0.657 ± 0.05
GWGFVGGTVAAV | 0.705 ± 0.034
GWGHYFGLIREQ | 0.698 ± 0.045
GWGLCGRAAGVE | 0.692 ± 0.011
GWGWDAVGVGGP | 0.711 ± 0.0074

Sequence | protein stability index
GWLCARGSSSRP | 0.649 ± 0.0067
GWLGVRVCLAQR | 0.616 ± 0.0081
GWLLGVGDEFRR | 0.734 ± 0.031
GWRGDTSGGGWR | 0.655 ± 0.03
GWRGRRGERARG | 0.749 ± 0.054
GWRGVGVGGGVC | 0.689 ± 0.017
GWSGWFSRVLRG | 0.726 ± 0.039
GWTLIFGRTSEG | 0.678 ± 0.023
GWVKWGVGIGRG | 0.734 ± 0.079
GWWGGEGVEGEP | 0.6846 ± 0.0015
GWWGGGGGAWSG | 0.697 ± 0.065
GYGLGVEAEGLE | 0.715 ± 0.054
GYGSSVYAVQKL | 0.608 ± 0.0096
GYILSFPSVGGW | 0.724 ± 0.049
GYLNWIDTRTSE | 0.79 ± 0.086
GYNLTNVIPGVG | 0.681 ± 0.016
GYPIIIFYSAVQ | 0.529 ± 0.051
GYPPDPSPPRLL | 0.724 ± 0.015
GYRRELGVCSGD | 0.586 ± 0.08
GYTSADHATALY | 0.755 ± 0.054
GYWPWGLARVDV | 0.698 ± 0.017
HACGGVFLSSVR | 0.693 ± 0.025
HAGLLTSSHPGR | 0.705 ± 0.018
HAISHRVFLHSP | 0.665 ± 0.025
HALWRASVGQCG | 0.693 ± 0.068
